# The nanobody polyreactivity screen of Harvey et al. (2022)
# Assay: yeast display, Sf9 membrane polyspecificity reagent, FACS + sequencing; frameworks hold sequencing errors
# Outline: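 In a synthetic yeast display library (Saccharomyces cerevisiae BJ5465), nanobody expression was induced with galactose for 36–48 hours. FACS gates were set low and high (top ~1%) using anti-HA fluorescence for expression and streptavidin fluorescence for binding of the Sf9 membrane reagent. Each polyreactivity label is drawn from the gate of origin.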
row,Sequence,polyreactivity (PSR sort gate)
1,QVQLVDSGGGLVQAGGSLRLSCASSGSTTVLYAKGWYRQAPGKEREMVAAISRSGGSTYYADSVKGRFTISRDNAKYTVYLQMNSLKPEDTAVYYCAARVPFSPYLRLFDYWGQGTQVTVSS,low polyreactivity
2,QVQLVDSGGGLVQAGGSLRLSCATSGYTFKAYAMVWYRQAPGKERELVAGISRSGGSTYYADSVKGRFTISRDNAKNTVYLQINSLKPEDTAVYYCAADSFSCETVVPSVLEFDYWGQGTQVTLSS,low polyreactivity
3,QVQLVDSGGGLVQAGGSLRLSCDASGSILAQYAMGWYRQAPGKEREFVAAISRRGVRTNYADSVKGRFTISRDNAKNTDYLQMNSLKHEDTAVYYCAAALYTPSLNSAFDYWGQGTQVTVSS,high polyreactivity
4,QVQLVDSGGGLVQAGGSLRLSCGASGRIFPYNAMGWYRQAPGKERELVAAINWSGGSTYYADSVKGRFTISRDTAKNTVYLQMNSLKPEDTAVYYCAVKTVRSSSRNYWRQGTQVTVSS,high polyreactivity
5,QVQLVDSGGGLVQAGGSLRLSCHASGRIVTSNAMGWYRQAPGKERELVAAISWSGGSTYYADSVKGRFTISRDNAKNTVYLQINSLKPEDTAVYYCAAYGTKWGRGFYITGYGYWGQGTQVTVSS,low polyreactivity
6,QVQLVDSGGGLVQAGGSLRLSCSASGYIFYANTMGWYRQAPGKEREFVATISWIGSTYYADSVKGRFTISRDNAKNTVYLQMNSLKPEDTAVYYCNARYTYRRYGRYDYWGQGTQVTVSS,high polyreactivity
7,QVQLVDSGGGLVQAGGSLRLSFAASGRIFAGYAMGWYRQAPGKERELVASIRYSGGSTYADSVKGRFTISRDNAKKTVYLQMNSLKPEDTAVYYSADGVQSVYNGEPGIILEFDYWGQGTQVTVSS,low polyreactivity
8,QVQLVDSGGGLVQAGGSLRLTCAASARTFHYYAMGWYREAPGKERELVAAITSSGGSTYADSVKGRFTISRDNAKNTVYLQMNSLKPEDTAVYYCARDRYDNPYDQELDYWGQGTQVTVSS,low polyreactivity
9,QVQLVDSGGGLVQAGGSLRLTCAASGFIFGYNTMGWYRQAPGKERELVAAIDSGGSTNYADSVKGRFTISRDNAKNTDYLQMNSLKPEDTAVYYCARESDWWREFPYDYWGQGTQVNVSS,low polyreactivity
10,QVQLVDSGGGLVQAGGSLRLTCAASGGIFKRYAMGWYRQAPGKERELVAAISGRGGGTYYADSVKGRFTISRDNAKNTVYLQMNSLKPEDTAVYYCNARLSWSAFGYWGQGTQVTVSS,high polyreactivity
11,QVQLVDSGGGLVQAGGSLRLTCAASGNTFYYYAMGWYRQAPGKERELVAAINRGGNTYYADSVKGRFTISRDNAKNTVYLQMNSLKPEDTAVYYCAKRKSNPGNRQEYYYWGQGTQVTVSS,low polyreactivity
12,QVQLVDSGGGLVQAGGSLRLTCAASGSIFNHKAMGGYRQAHGKERELVAAIRFSTGTTYYADSVKGRFTISRDYAMNTVYVQMNSLKPEDTAVYYWNAQGYFTDYWLSSYFRDFDYWGQGTHVTVSS,low polyreactivity
13,QVQLVDSGGGLVQAGGSLRVSCAASGLIFTRNAMGWYRPAPGKERELVAAISSSGGSTYYADSVKGRFTISRDNAKNTVYLQLNSLKPEDTAVYYCATDAAYLFTAYDYWGQGTQVTVSS,low polyreactivity
14,QVQLVDSGGGLVQAGGSLSLSCAASGITFYRYMGLYRQGPWKSRELVASITGRGGSTYYADSVKGRFTISRDNAKNTGYLEMNSLKPEDTAVYYCAAVFPTKSSTWYDYWGQGTQVTVSS,high polyreactivity
15,QVQLVDSGGGLVQAGGSLSLSCAASGSILRYYAMVWYRQAPGKERELVAAISRSGGSTYYADSVKGRVTISGDNAKNKVYLLMNRLKPEDTAVYYCANSDFGHHVTGFGYWGQGTQVTVSS,low polyreactivity
16,QVQLVDSGGGLVQAGGSRRLSCADSGSIFGDYDMGWYRQAHGKERELVATIRYSGGTTYYADSVKGRFTISRDNAKNTVYLQLISLKPEDTAVYYCNARVWLFWTSELDSWGQGTQVTVSS,low polyreactivity
17,QVQLVDSGGGLVQAGVSLRLSCAASGSTFVGYAIGSYSQAPGKERELVAAISRSGGRTYYADSVKGRFTISRDKAKNTVYLQMNSLKPEDTAVYYCYPYYIASTFDEWGQGTQVTVSS,high polyreactivity
